Experimental data published in US20020142359A1 (AstraZeneca / MedImmune, published 2002).

Key:
[1] = biological target: CEA on LS174T colo-rectal tumour cells (UniProt P06731); assay: cell-based or functional assay
[2] = biological target: T1, CEA (Carcinoembryonic antigen), purified antigen (UniProt P06731 35-685, limits assumed); assay: EIA of hybridoma supernatants against native CEA; line 806.077 was cloned from one of the positive wells
T1 construct: Purified CEA, 50 ng per well in the CEA ELISA; also called native CEA; untreated CEA
T1 sequence (looked up): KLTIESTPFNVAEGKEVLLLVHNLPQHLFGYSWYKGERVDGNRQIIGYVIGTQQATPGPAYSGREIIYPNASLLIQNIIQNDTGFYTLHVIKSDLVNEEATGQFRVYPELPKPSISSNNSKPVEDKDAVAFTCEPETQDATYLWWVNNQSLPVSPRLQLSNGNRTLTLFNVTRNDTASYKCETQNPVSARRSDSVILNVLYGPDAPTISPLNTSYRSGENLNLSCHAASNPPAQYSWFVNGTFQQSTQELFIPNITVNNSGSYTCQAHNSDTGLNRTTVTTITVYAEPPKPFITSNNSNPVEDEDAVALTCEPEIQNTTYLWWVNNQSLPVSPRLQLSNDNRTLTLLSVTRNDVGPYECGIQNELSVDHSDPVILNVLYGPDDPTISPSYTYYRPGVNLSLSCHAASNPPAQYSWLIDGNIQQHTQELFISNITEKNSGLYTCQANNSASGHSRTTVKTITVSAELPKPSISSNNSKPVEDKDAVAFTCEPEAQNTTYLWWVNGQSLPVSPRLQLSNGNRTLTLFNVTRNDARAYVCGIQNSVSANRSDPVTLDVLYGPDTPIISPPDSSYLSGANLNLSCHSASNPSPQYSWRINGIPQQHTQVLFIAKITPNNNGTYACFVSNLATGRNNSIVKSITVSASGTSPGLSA

[3] = biological target: T1, CEA (Carcinoembryonic antigen), …; assay: CEA ELISA (50 ng CEA per well) on NS0 culture supernatants, detected with HRPO anti-human kappa
Protocol: (§1) For the CEA ELISA each well of a 96 well immunoplate (NUNC MAXISORB™) was coated with 50 ng CEA in 50 mM carbonate/bicarbonate coating buffer pH9.6 (buffer capsules—Sigma C3041) and incubated at 4° C. overnight. The plate was washed three times with PBS+0.05% Tween 20 and then blocked 150 μl per well of 1% BSA in PBS +0.05% Tween 20 for 1 hour at room temperature. The plate was washed as previously described, 100 μl of test sample added per well and incubated at room temperature for 2 hours. Again the plate was washed three times with PBS+0.05% Tween 20, 100 μl per well of a 1/500 dilution of HRPO-labelled goat anti-human kappa antibody (Sigma A 7164) was added, in 1% BSA in PBS-Tween 20 and incubated at room temperature on a rocking platform for at least 1 hour. The plate was washed as before and then once more with PBS. To detect binding add 100 μl per well developing solution (one capsule of phosphate-citrate buffer—Sigma P4922—dissolved in 100 mls H₂O to which is added one 30 mg tablet o-phenylenediamine dihydrochloride—Sigma P8412) and incubated for up to 15 minutes. The reaction was stopped by adding 75 μl 2M H₂SO₄, and absorbance read at 490 nm.

[4] = biological target: T1, CEA (Carcinoembryonic antigen), …; assay: CEA ELISA on NS0 culture supernatants (Example 43)
Protocol: as §1
(§2) As before, the human F(ab′)₂ antibody fragment was then purified from the culture supernatant as described in Example 102.

[5] = biological target: T1, CEA (Carcinoembryonic antigen), …; assay: CEA ELISA on NS0 culture supernatants (Example 14)
Protocol: as §1

[6] = biological target: T1, CEA (Carcinoembryonic antigen), …; assay: CEA ELISA on NS0 culture supernatants (Example 39)
Protocol: as §1, §2

[7] = biological target: T1, CEA (Carcinoembryonic antigen), …; assay: CEA ELISA on NS0 culture supernatants (Example 42)
Protocol: as §1, §2

[8] = biological target: T1, CEA (Carcinoembryonic antigen), …; assay: CEA ELISA on NS0 culture supernatants (Example 45)
Protocol: as §1, §2

[9] = biological target: T1, CEA (Carcinoembryonic antigen), …; assay: CEA ELISA on NS0 culture supernatants (Example 41)
Protocol: as §1, §2

[10] = biological target: T1, CEA (Carcinoembryonic antigen), …; assay: CEA ELISA on NS0 culture supernatants (Example 47)
Protocol: as §1, §2

[11] = biological target: T1, CEA (Carcinoembryonic antigen), …; assay: CEA ELISA on media from NS0 clones, detected with anti-human kappa peroxidase conjugate
Text: Media from wells containing single viable clones was taken for testing and replaced with fresh media (containing G418).

human B7.1-murine A5B7 F(ab')2 fusion protein (AB7)
[3H] thymidine incorporation by T cells on anti-CD3 coated wells (T cells + LS174T/fusion protein) [1]: 41800 cpm | [3H] thymidine uptake, fold over no co-stimulation [1]: > 11 fold | [3H] thymidine uptake, fold over tumour cells alone [1]: > 3 fold

B1: 806.077 antibody (antibody, V domains shown)
VH: EVQLQQSGAELVRSGASVKLSCTASGFNIKDNYMHWVKQRPEQGLEWIAWIDPENGDTEYAPKFRGKATLTADSSSNTAYLHLSSLTSEDTAVYYCHVLIYAGYLAMDYWGQGTSVAVSS
VL: DIELTQSPAIMSASPGEKVTITCSASSSVTYMHWFQQKPGTSPKLWIYSTSNLASGVPARFSGSGSGTSYSLTISRMEAEDAATYYCQQRSTYPLTFGAGTKLELKR
notes: The cDNA primers hybridise to murine IgG1 CH1 and murine kappa constant regions
binding result [2]: binds

B2: humanised 806.077 HuVH1/HuVK1 HuIgG2 F(ab')2 (Initial humanised antibody) (antibody, V domains shown)
VH: EVQLQQSGPGLVRPSQTLSLTCTASGFNIKDNYMHWVRQPPGRGLEWIGWIDPENGDTEYAPKFRGRVTMLADTSKNQFSLRLSSVTAADTAVYYCHVLIYAGYLAMDYWGQGTLVTVSS
VL: DIQMTQSPSSLSASVGDRVTITCSASSSVTYMHWYQQKPGKAPKLLIYSTSNLASGVPSRFSGSGSGTDYTFTISSLQPEDIATYYCQQRSTYPLTFGQGTKLEIKR
notes: F(ab')2 fragment secreted by NS0 cells and tested as culture supernatant
binding result [3]: binds

B3: humanised 806.077 HuVH1/HuVK3 HuIgG2 F(ab')2 (antibody, V domains shown)
VH: EVQLQQSGPGLVRPSQTLSLTCTASGFNIKDNYMHWVRQPPGRGLEWIGWIDPENGDTEYAPKFRGRVTMLADTSKNQFSLRLSSVTAADTAVYYCHVLIYAGYLAMDYWGQGTLVTVSS
VL: QIVLTQSPSSLSASVGDRVTITCSASSSVTYMHWYQQKPGKAPKLLIYSTSNLASGVPSRFSGSGSGTDYTFTISSLQPEDIATYYCQQRSTYPLTFGQGTKLEIKR
notes: F(ab')2 fragment from NS0 supernatant
binding result [4]: binds

B4: humanised 806.077 HuVH1/HuVK4 HuIgG2 F(ab')2 (antibody, V domains shown)
VH: EVQLQQSGPGLVRPSQTLSLTCTASGFNIKDNYMHWVRQPPGRGLEWIGWIDPENGDTEYAPKFRGRVTMLADTSKNQFSLRLSSVTAADTAVYYCHVLIYAGYLAMDYWGQGTLVTVSS
VL: DIQMTQSPSSLSASVGDRVTITCSASSSVTYMHWYQQKPGKAPKLWIYSTSNLASGVPSRFSGSGSGTDYTFTISSLQPEDIATYYCQQRSTYPLTFGQGTKLEIKR
notes: as for B3
binding result [5]: binds

B5: humanised 806.077 HuVH1/HuVK1 HuIgG1 F(ab')2 (antibody, V domains shown)
VH: EVQLQQSGPGLVRPSQTLSLTCTASGFNIKDNYMHWVRQPPGRGLEWIGWIDPENGDTEYAPKFRGRVTMLADTSKNQFSLRLSSVTAADTAVYYCHVLIYAGYLAMDYWGQGTLVTVSS
VL: DIQMTQSPSSLSASVGDRVTITCSASSSVTYMHWYQQKPGKAPKLLIYSTSNLASGVPSRFSGSGSGTDYTFTISSLQPEDIATYYCQQRSTYPLTFGQGTKLEIKR
notes: F(ab')2 fragment from NS0 supernatant; also called HuVH1-HuIgG1 + HuVK1-HuCK
binding result [6]: binds

B6: humanised 806.077 HuVH1/HuVK3 HuIgG1 F(ab')2 (antibody, V domains shown)
VH: EVQLQQSGPGLVRPSQTLSLTCTASGFNIKDNYMHWVRQPPGRGLEWIGWIDPENGDTEYAPKFRGRVTMLADTSKNQFSLRLSSVTAADTAVYYCHVLIYAGYLAMDYWGQGTLVTVSS
VL: QIVLTQSPSSLSASVGDRVTITCSASSSVTYMHWYQQKPGKAPKLLIYSTSNLASGVPSRFSGSGSGTDYTFTISSLQPEDIATYYCQQRSTYPLTFGQGTKLEIKR
notes: F(ab')2 fragment from NS0 supernatant; also called HuVH1-HuIgG1 + HuVK3-HuCK
binding result [7]: binds

B7: humanised 806.077 HuVH1/HuVK4 HuIgG1 F(ab')2 (antibody, V domains shown)
VH: EVQLQQSGPGLVRPSQTLSLTCTASGFNIKDNYMHWVRQPPGRGLEWIGWIDPENGDTEYAPKFRGRVTMLADTSKNQFSLRLSSVTAADTAVYYCHVLIYAGYLAMDYWGQGTLVTVSS
VL: DIQMTQSPSSLSASVGDRVTITCSASSSVTYMHWYQQKPGKAPKLWIYSTSNLASGVPSRFSGSGSGTDYTFTISSLQPEDIATYYCQQRSTYPLTFGQGTKLEIKR
notes: F(ab')2 fragment from NS0 supernatant; also called HuVH1-HuIgG1 + HuVK4-HuCK
binding result [8]: binds

B8: humanised 806.077 HuVH1/HuVK1 HuIgG3 F(ab')2 (antibody, V domains shown)
VH: EVQLQQSGPGLVRPSQTLSLTCTASGFNIKDNYMHWVRQPPGRGLEWIGWIDPENGDTEYAPKFRGRVTMLADTSKNQFSLRLSSVTAADTAVYYCHVLIYAGYLAMDYWGQGTLVTVSS
VL: DIQMTQSPSSLSASVGDRVTITCSASSSVTYMHWYQQKPGKAPKLLIYSTSNLASGVPSRFSGSGSGTDYTFTISSLQPEDIATYYCQQRSTYPLTFGQGTKLEIKR
notes: F(ab')2 fragment from NS0 supernatant; also called HuVH1-HuIgG3 + HuVK1-HuCK
binding result [9]: binds

B9: humanised 806.077 HuVH1/HuVK4 HuIgG3 F(ab')2 (antibody, V domains shown)
VH: EVQLQQSGPGLVRPSQTLSLTCTASGFNIKDNYMHWVRQPPGRGLEWIGWIDPENGDTEYAPKFRGRVTMLADTSKNQFSLRLSSVTAADTAVYYCHVLIYAGYLAMDYWGQGTLVTVSS
VL: DIQMTQSPSSLSASVGDRVTITCSASSSVTYMHWYQQKPGKAPKLWIYSTSNLASGVPSRFSGSGSGTDYTFTISSLQPEDIATYYCQQRSTYPLTFGQGTKLEIKR
notes: F(ab')2 fragment from NS0 supernatant; also called HuVH1-HuIgG3 + HuVK4-HuCK
binding result [10]: binds

B10: pro-[A248S,G251T,D253K]HCPB-linker-F(ab')2(humanised 806.077) (other)
heavy: HHGGEHFEGEKVFRVNVEDENHINIIRELASTTQIDFWKPDSVTQIKPHSTVDFRVKAEDTVTVENVLKQNELQYKVLISNLRNVVEAQFDSRVRATGHSYEKYNKWETIEAWTQQVATENPALISRSVIGTTFEGRAIYLLKVGKAGQNKPAIFMDCGFHAREWISPAFCQWFVREAVRTYGREIQVTELLDKLDFYVLPVLNIDGYIYTWTKSRFWRKTRSTHTGSSCIGTDPNRNFDAGWCEIGASRNPCDETYCGPAAESEKETKALADFIRNKLSSIKAYLTIHSYSQMMIYPYSYAYKLGENNAELNALAKATVKELASLHGTKYTYGPGATTIYPSAGTSKDWAYDQGIRYSFTFELRDTGRYGFLLPESQIRATCEETFLAIKYVASYVLEHLYGGGSGGGSGGGSEVQLQQSGPGLVRPSQTLSLTCTASGFNIKDNYMHWVRQPPGRGLEWIGWIDPENGDTEYAPKFRGRVTMLADTSKNQFSLRLSSVTAADTAVYYCHVLIYAGYLAMDYWGQGTLVTVSSASTKGPSVFPLAPCSRSTSGGTAALGCLVKDYFPEPVTVSWNSGALTSGVHTFPAVLQSSGLYSLSSVVTVPSSSLGTQTYTCNVNHKPSNTKVDKRVELKTPLGDTTHTCPRCPEPKSCDTPPPCPRCPEPKSCDTPPPCPRCPEPKSCDTPPPCPRCPAPELLGG
light: DIQMTQSPSSLSASVGDRVTITCSASSSVTYMHWYQQKPGKAPKLWIYSTSNLASGVPSRFSGSGSGTDYTFTISSLQPEDIATYYCQQRSTYPLTFGQGTKLEIKRTVAAPSVFIFPPSDEQLKSGTASVVCLLNNFYPREAKVQWKVDNALQSGNSQESVTEQDSKDSTYSLSSTLTLSKADYEKHKVYACEVTHQGLSSPVTKSFNRGEC
notes: Antibody-enzyme fusion secreted by NS0 cells
binding result [11]: binds
